Experimental data taken from the supplement of paper PMC9732359.
± gives the uncertainty stated by the source.

Assay: protein stability index of a GFP-peptide fusion (yeast GPS) (PSI 1-4); higher = more stable; sorted into four equal gates, so the index is relative within each strain
How it was run: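 The protein stability index of a peptide was calculated by multiplying its read frequency in each gate by that gate's number and adding the products. The peptides were tiled 17-residue stretches of yeast proteins, fused downstream of GFP on a Cherry-expressing plasmid and carried in yeast as a pooled library. Mid-log cultures in leucine-free medium were sorted into four equal gates by GFP/Cherry ratio, and each gate's plasmids were PCR-amplified and Illumina-sequenced.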

Row | Sequence | protein stability index (doa10∆) | protein stability index (pdr5∆) | protein stability index (san1∆) | protein stability index (ubr1∆)
1 | QPTGLLKGLNGFPSAPQ [YMR153W/NUP53] | 3.39 ± 0.14 | 3.3 ± 0.12 | 3.25 ± 0.11 | 3.18 ± 0.1
2 | AIPLQQVLSQSADPSLL [SWI1] | 2.86 ± 0.22 | 2.5 ± 0.13 |  | 3.06 ± 0.17
3 | ERVSPTDIEEGMRVGVD [RPT1] | 3.16 ± 0.14 | 3.4 ± 0.14 | 2.83 ± 0.096 | 3.16 ± 0.12
4 | HYLFNTFTFTAHMGVLL [SWP82] | 1.69 ± 0.039 | 1.68 ± 0.036 | 1.39 ± 0.072 | 1.51 ± 0.024
5 | SSFTFGSTTIEKKNDEN [YLR335W/NUP2] | 2.79 ± 0.084 | 2.49 ± 0.094 | 3.08 ± 0.063 | 2.99 ± 0.046
6 | TKHPSLKTLTHKQIHTT [POP7] | 2.21 ± 0.039 | 2.4 ± 0.04 | 2.21 ± 0.05 | 2.48 ± 0.04
7 | DRHIGCAMSGLTADARS [PUP2] | 2.67 ± 0.096 | 3.08 ± 0.12 |  | 2.69 ± 0.07
8 | VSQQPLSRGYTCPGLSL [ECM29] | 3.02 ± 0.056 | 2.97 ± 0.04 | 3.02 ± 0.051 | 2.93 ± 0.044
9 | RERIKRGAHVEKTMVKK [PRP8] |  |  |  | 2.78 ± 0.18
10 | KSNGLAPEIPEDLYYLI [RPS13] | 2.65 ± 0.081 | 2.83 ± 0.13 | 2.45 ± 0.11 | 2.4 ± 0.14
11 | KSRGSDLQYLGEFSGKN [RRP6] | 3.13 ± 0.088 | 3.34 ± 0.11 | 3.45 ± 0.082 | 3.31 ± 0.073
12 | SNTTTHVPEKKSTDLTP [MTR3] |  |  | 2.15 ± 0.18 | 1.31 ± 0.29
13 | SVRTAVFSALKNLISRI [ECM29] | 2.34 ± 0.049 | 2.31 ± 0.045 | 2.03 ± 0.064 | 2.53 ± 0.035
14 | DDELMNWRRLSGRNIHL [SSN2] | 3 ± 0.088 | 2.91 ± 0.074 | 3.01 ± 0.087 | 3.19 ± 0.09
15 | GNRYLEKRLNLRVEHIK [RPL21A] | 3.05 ± 0.077 | 2.96 ± 0.086 | 3.08 ± 0.075 | 3.05 ± 0.071
16 | KGGSLYGLGLIYAGFGR [RPN2] | 2.15 ± 0.095 | 2.28 ± 0.086 | 2.35 ± 0.063 | 2 ± 0.062
17 | DISAAIVHSSDGHLQFL [DLS1] | 2.92 ± 0.056 | 2.85 ± 0.068 | 3.01 ± 0.048 | 2.8 ± 0.078
18 | EREQPQENKNIDDENIT [SRB4] | 3.5 ± 0.055 | 3.19 ± 0.071 | 3.07 ± 0.051 | 3.65 ± 0.084
19 | NNNDNNNSNTVASSTNF [SWI1] | 2.92 ± 0.032 | 3.089 ± 0.03 | 2.94 ± 0.031 | 3.021 ± 0.028
20 | VPATAAPGTEAGIVPVS [SWI1] | 3.1 ± 0.069 | 3 ± 0.084 | 3.14 ± 0.066 | 3.15 ± 0.07
21 | DTYRTLMEEIESLKKEL [YIL149C/MLP2] | 3.16 ± 0.1 | 3.36 ± 0.092 | 3.4 ± 0.07 | 3.35 ± 0.068
22 | QNIILRSTMMKFLKIAS [RPN3] | 2.15 ± 0.072 | 2.42 ± 0.067 | 2.86 ± 0.077 | 3.03 ± 0.048
23 | FGQRAVLKFAAHTGATP [RPS0A] | 2.18 ± 0.082 | 2.56 ± 0.07 | 2.45 ± 0.11 | 2.61 ± 0.067
24 | YNMYDAYGNWFNGLKPL [PRP8] | 2.93 ± 0.06 | 3.36 ± 0.093 | 2.9 ± 0.11 | 3.13 ± 0.048
25 | QNKEIKAERVEDQKVVD [RPL6A] | 3.4 ± 0.067 | 3.44 ± 0.066 | 3.33 ± 0.041 | 3.35 ± 0.052
26 | VIELPLKNPEIFQRVGI [RPT4] | 2.17 ± 0.11 | 2.16 ± 0.21 | 2.46 ± 0.12 | 2.29 ± 0.17
27 | FRNNKNDNYSSDMENDN [REC8] | 3.44 ± 0.18 | 3.15 ± 0.23 | 3.2 ± 0.17 | 2.73 ± 0.11
